For the assay, the target named is T1, His-tagged Set7 (human, UniProt Q8WTS6 1-366).
T1 sequence (looked up): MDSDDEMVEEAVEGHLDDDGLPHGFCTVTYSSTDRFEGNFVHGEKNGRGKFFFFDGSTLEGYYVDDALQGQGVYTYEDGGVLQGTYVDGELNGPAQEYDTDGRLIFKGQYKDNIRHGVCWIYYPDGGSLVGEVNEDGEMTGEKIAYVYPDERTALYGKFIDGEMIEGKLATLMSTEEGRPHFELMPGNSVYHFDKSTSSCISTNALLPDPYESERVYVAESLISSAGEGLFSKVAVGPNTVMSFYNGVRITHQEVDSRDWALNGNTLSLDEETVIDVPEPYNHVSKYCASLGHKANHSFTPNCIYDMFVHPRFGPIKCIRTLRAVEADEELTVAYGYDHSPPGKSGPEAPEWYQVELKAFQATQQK
The experiment in a line: pull-down.

The values that follow come from article PMC4446437 (Nucleic Acids Research, 2015).

B1: GST-HIF-1α-(amino acids 576–785) (domain or fragment, human, UniProt Q16665 576-785, looked up)
chain: SFDQLSPLESSSASPESASPQSTVTVFQQTQIQEPTANATTTTATTDELKTVTKDRMEDIKILIASPSPTHIHKETTSATSSPYRDTQSRTASPNRAGKGVIEQTEKSHPRSPNVLSVALSQRTTVPEEELNPKILALQNAQRKRKMEHDGSLFQAVGIGTLLQQPDDHAATTSLSWKRVKGCKSSEQNGMEQKTIILIPSDLACRLLGQ
For the molecule B1, the binding result is listed as “binds”.
